Assays:
[1] = molecular target: p75CTD symmetric dimer (dimer of the C416S mutant of p75CTD) (rat) (UniProt P07174); experiment: SPR; Biacore 3000, 25 °C; p75CTD monomer and dimer coupled onto a CM-5 chip at equal molarities; NRIF peptide flowed over; 50 mM Hepes-KOH pH 7.5, 100 mM KCl, 5% glycerol, 0.005% Tween-20
[2] = molecular target: p75DD-Fusion (chimera of the p75NTR death domain and a p75-interacting peptide from NRIF) (rat | not stated) (UniProt P07174); experiment: SEC; purified p75NTR constructs and their mutants on a Superdex 75 column; monomer and dimer peaks; some runs with beta-ME or DTNB
[3] = molecular target: the molecule itself; experiment: immunoprecipitation and non-reducing SDS-PAGE immunoblot; HA-p75NTR in transfected HEK 293T cells without ligand; lysate in 40 mM Tris pH 7.6, 150 mM NaCl, 0.5% NP-40, 10% glycerol; anti-HA immunoprecipitates boiled with or without DTT, blotted with anti-HA
[4] = molecular target: the molecule itself; experiment: SEC; purified p75NTR constructs and their mutants on a Superdex 75 column; monomer and dimer peaks; some runs with beta-ME or DTNB
[5] = molecular target: the molecule itself; experiment: crystal structure; p75DD modified with DTNB; sitting drop, 4 °C, 0.1 M Bis-Tris propane pH 7.0, 1.2 M sodium citrate; asymmetric dimer in the crystal lattice
[6] = molecular target: T1, p75CTD monomer (p75CTD C379S/C416S) (rat, UniProt P07174 334-425, C379S | C416S, biotinylated for the BLI assay); experiment: BLI
T1 sequence: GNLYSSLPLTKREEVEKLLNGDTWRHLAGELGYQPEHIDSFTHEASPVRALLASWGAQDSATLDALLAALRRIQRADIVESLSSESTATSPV

[7] = molecular target: T2, p75CTD monomer (p75CTD C379S/C416S) (rat, UniProt P07174 334-425, C379S | C416S, biotinylated for the BLI assay); experiment: BLI; Octet (ForteBio); biotinylated p75CTD proteins loaded on Streptavidin High Binding FA biosensors; RIP2 CARD in solution at 5 µM, then 20, 10, 5 and 2 µM for the monomer; 50 mM Hepes-NaOH pH 7.5, 100 mM NaCl, 5% glycerol, 1 mM EDTA; settings: both partners purified
T2 construct: p75NTR, rat, residues 334-425; Mutant of m3; the tag is that of the parent construct; Biotinylated for BLI, coupled onto a CM-5 chip for SPR; also called double cysteine residue mutant
T2 sequence (looked up): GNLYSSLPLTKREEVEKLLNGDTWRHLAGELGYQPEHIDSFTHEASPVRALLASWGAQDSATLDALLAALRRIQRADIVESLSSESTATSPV

[8] = molecular target: T2, p75CTD monomer (p75CTD C379S/C416S); experiment: SPR; Biacore 3000, 25 °C; p75CTD monomer and dimer coupled onto a CM-5 chip at equal molarities; NRIF peptide flowed over; 50 mM Hepes-KOH pH 7.5, 100 mM KCl, 5% glycerol, 0.005% Tween-20; settings: both partners purified

NRIF peptide (residues 552-577), chemically synthesized
Kd [1]: 10 µM

p75DD-Fusion (chimera of the p75NTR death domain and a p75-interacting peptide from NRIF) (from UniProt P07174 334-418)
stoichiometry N [2]: 2

B1: full-length rat p75NTR with N-terminal HA tag (receptor, UniProt P07174 30-425, looked up)
chain: KETCSTGLYTHSGECCKACNLGEGVAQPCGANQTVCEPCLDNVTFSDVVSATEPCKPCTECLGLQSMSAPCVEADDAVCRCAYGYYQDEETGHCEACSVCEVGSGLVFSCQDKQNTVCEECPEGTYSDEANHVDPCLPCTVCEDTERQLRECTPWADAECEEIPGRWIPRSTPPEGSDSTAPSTQEPEVPPEQDLVPSTVADMVTTVMGSSQPVVTRGTTDNLIPVYCSILAAVVVGLVAYIAFKRWNSCKQNKQGANSRPVNQTPPPEGEKLHSDSGISVDSQSLHDQQTHTQTASGQALKGDGNLYSSLPLTKREEVEKLLNGDTWRHLAGELGYQPEHIDSFTHEACPVRALLASWGAQDSATLDALLAALRRIQRADIVESLCSESTATSPV
notes: p75NTR, rat, full length; pCDNA3 construct, a gift; also called wildtype; full-length p75NTR; source: HEK 293T, transiently transfected, in lysate; not shown: HA, N-terminal, kept
stoichiometry N [3]: 2

B2: p75CTD C416S (domain or fragment, rat, UniProt P07174 334-425, looked up)
chain: GNLYSSLPLTKREEVEKLLNGDTWRHLAGELGYQPEHIDSFTHEACPVRALLASWGAQDSATLDALLAALRRIQRADIVESLSSESTATSPV
notes: p75NTR, rat, residues 334-425; Mutant of m3, the single chain for its self-association; the isolated dimer is m12; also called C416S mutant of p75CTD
stoichiometry N [4]: 2

B3: p75CTD (rat p75NTR residues 334-425) (domain or fragment, UniProt P07174 334-425, looked up)
chain: GNLYSSLPLTKREEVEKLLNGDTWRHLAGELGYQPEHIDSFTHEACPVRALLASWGAQDSATLDALLAALRRIQRADIVESLCSESTATSPV
notes: p75NTR, rat, death domain and C-terminal tail, residues 334-425; pET24a vector; source: E. coli BL21, purified (Ni-NTA, size-exclusion chromatography)
stoichiometry N [4]: 2

B4: p75ICD (rat p75NTR intracellular region, residues 280-425) (domain or fragment, UniProt P07174 280-425, looked up)
chain: KQNKQGANSRPVNQTPPPEGEKLHSDSGISVDSQSLHDQQTHTQTASGQALKGDGNLYSSLPLTKREEVEKLLNGDTWRHLAGELGYQPEHIDSFTHEACPVRALLASWGAQDSATLDALLAALRRIQRADIVESLCSESTATSPV
notes: p75NTR, rat, intracellular region, residues 280-425; pET24a vector; source: E. coli BL21, purified (Ni-NTA, size-exclusion chromatography)
stoichiometry N [4]: 2

B5: p75DD (rat p75NTR death domain, residues 334-418) (domain or fragment, UniProt P07174 334-418, looked up)
chain: GNLYSSLPLTKREEVEKLLNGDTWRHLAGELGYQPEHIDSFTHEACPVRALLASWGAQDSATLDALLAALRRIQRADIVESLCSE
notes: p75NTR (neurotrophin receptor p75), rat, death domain, residues 334-418; pET24a vector; Not treated with DTNB in the solution experiments (the DTNB-treated crystal form is m2); also called His6-tagged p75DD; source: E. coli BL21, purified (Ni-NTA, size-exclusion chromatography); also co-expressed in E. coli with GST-tagged NRIF loop region (521-661); not shown: His6, C-terminal, kept
stoichiometry N [4]: 2

B6: p75DD modified with DTNB (as crystallised) (domain or fragment, rat, UniProt P07174 334-418, looked up)
chain: GNLYSSLPLTKREEVEKLLNGDTWRHLAGELGYQPEHIDSFTHEACPVRALLASWGAQDSATLDALLAALRRIQRADIVESLCSE
modifications: Cys379 and Cys416 modified by DTNB (MNB group)
notes: p75NTR, rat, death domain, residues 334-418 (334-417 traced in the structure); Same construct as m1 after treatment with DTNB at a 5:1 molar ratio; also called DTNB-modified p75DD; source: E. coli BL21, purified (Ni-NTA, size-exclusion chromatography), then modified with DTNB
binding result [5]: binds

B7: Human RIP2 CARD domain (residues 438-524) (domain or fragment, UniProt O43353 438-524, looked up)
chain: QWIQSKREDIVNQMTEACLNQSLDALLSRDLIMKEDYELVSTKPTRTSKVRQLLDTTDIQGEEFAKVIVQKLKDNKQMGLQPYPEIL
notes: pET24a vector; also called CARD protein; source: E. coli, purified (similar to p75DD)
Kd [6]: 0.24 µM
fold stronger than the NRIF peptide on p75CTD (KD about 10^-5 M) [7]: ~100 fold

MESGAGRASDNSLLTHALPVKSHQKG [NRIF peptide (residues 552-577), chemically synthesized]
Kd [8]: ~10 µM
